Measurements from the RNAGym collection of RNA variant scans (doi:10.1073/pnas.2313332121).

B1: TPR t1 (parent)
chain: GACCAAUCUGCCCUCAGAGCUCGAGAACAUCUUCGGAUGCAGAGGAGGCAGGCUUCGGUGGCGCGAUAGCGCCAACGUCCUCAACCUCCAAUGCAUCCCACCACAUGAUGAUGCCUGAAGAGCCUUGGUUUUUUG

Variants of: B1
Experiment: polymerase ribozyme fitness, log enrichment relative to wild type (log ratio); higher = more active; in vitro selection for triplet polymerase activity
In short: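 Genotype fitness is the logarithm of its enrichment divided by wild-type enrichment, using inverse-variance-weighted averages of replicates. That logarithm is base 2. Enrichment was measured by Illumina sequencing of input and output libraries from one triplicate in vitro selection round, with frozen incubation at −7 °C, on PCR-built, transcribed mutant libraries of each subunit of a heterodimeric triplet polymerase ribozyme, retaining genotypes with ≥10 input reads and ≥1 read per output.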

| Variant | polymerase ribozyme fitness (log ratio) |
| --- | --- |
| U7G A46U C82U C102A U112A | -0.759 |
| G48C G60U C86A C94U U106C G117C | -6.53 |
| C12A C79A A111G | -2.24 |
| G48C A74U | -0.843 |
| C34A G35A C86G U112C | -4.41 |
| A18C C40G | -4.09 |
| G42A C56A | -1.64 |
| C82G C102A G120A G122U | -2.05 |
| C15U A83G U87C | -2.34 |
| C62U A68G C99U U133G | -6.26 |
| G10A C15A G44U C56U A74G | -3.61 |
| C3A A111C G128U U129A | -1.89 |
| G122A C123U | 0.258 |
| C8G G52U G60A U96G | -0.693 |
| G48C G71C C123G | -0.00854 |
| G113C G120A | -2.39 |
| C12U U133A | 0.306 |
| G10A C88G A111C | -0.763 |
| C3U C20U | -1.7 |
| C114U G122A | -2.83 |
| G71U C99U | -4.69 |
| C8A A41U C49U | -1.56 |
| C8G A26G C86G U109C | -5.29 |
| C8G C97U C102U | -1.4 |

| Variant | polymerase ribozyme fitness (log ratio) |
| --- | --- |
| A5U A50U A105U A119G | -1.86 |
| U7C C11A G45C G58A A121C | 0.57 |
| C79A G117C | -5.12 |
| C8U C73G | -0.251 |
| A27U C40G U132A | -5.01 |
| C15U C22A U54A C124A | -3.89 |
| C12A C49A C82A | -1.3 |
| C86U U130C | 0.0697 |
| G36C U106G | -3.63 |
| C53G C99U | -3.54 |
| C40G G60U C104A | -1.87 |
| A26G G60C | -3.07 |
| G45A C85U C94A | -2.05 |
| G45U C114U A121U | -1.71 |
| A16C C82G | -3.22 |
| G110A U132A | -1.37 |
| A26U G39U G60C U78C G117C | -6.27 |
| U9G G69C | -2.16 |
| G39C A43U A90G C114U U125A | -2.64 |
| A37U G127U | -1.42 |
| G57A G69U C86A C101G | -2.75 |
| C40U C80U C99U C124U | -2.92 |
| C85A C124A U126G | -0.918 |
| C8U G23C C34U G61A G93A U109C | -6.59 |

| Variant | polymerase ribozyme fitness (log ratio) |
| --- | --- |
| C8U C53G | -0.0198 |
| C22U G63C G120U | -4.89 |
| G45C C53A G120A U129G | -1.07 |
| C53A C72G C88U C123G | 1.36 |
| A29G U32C G42U G47C | -4.18 |
| C8G G10C G23C G25A G60C C88G G110A | -7.14 |
| C72U C123G | 0.829 |
| C22G G23A U125A G128U | -4.85 |
| C12G C104U G128C U133A | -0.738 |
| C28A A50C C72U G113A | -3.3 |
| G39C G135U | -0.712 |
| U55C A121G | 1.84 |
| G36C G45C | -2.04 |
| G39U G113C | -2.84 |
| C20U G135U | -1.97 |
| U9C G63U C104U | -0.467 |
| C13U G35A G45A U87G | -4.53 |
| C31U U78G C101G C104A G110A | -5.57 |
| C70A G128A | -3.64 |
| C40U A91C C97U C115U | -3.9 |
| A6U A27G C79U A111C | -4.62 |
| C8U A41C A91C C123U | 0.0486 |
| C62A C72U A75C C85A U129C | -2.55 |
| C72A A118C | -2.72 |

| Variant | polymerase ribozyme fitness (log ratio) |
| --- | --- |
| C8A A18C C56G A95G | -2.26 |
| U7C A66U U106C | -1.58 |
| A5U C49A | -2.06 |
| C31G C99G | -6.63 |
| C64U C88A U96G U109C A121G | -6.55 |
| A37U C98A | -5.84 |
| A50G G63U A66G U130A | -4.03 |
| A26U U81C | -3.05 |
| G51U C82U C85U C94U | -2.49 |
| G17A C73U U112A A119U C123U U125C | -2.9 |
| A16C A50U | -4.64 |
| C13G G52C C86U A118G | -5.59 |
| U9G A108G | -1.95 |
| G113C U126C | -2.46 |
| C4G U112C | -0.0354 |
| C40A G45U G71C U92A | -6.28 |
| C88A G117U | -2.84 |
| A18C C22U C73A A121U | -5.5 |
| C11A C70A A90G | -3.13 |
| C12A A46U C49U A95G C99U A111G U116A | -6.56 |
| G69U C102A | -1.4 |
| G69U C102U | -1.18 |
| C53A U78G C82A | 0.638 |
| G44A G110A | -2.08 |

| Variant | polymerase ribozyme fitness (log ratio) |
| --- | --- |
| G44A U96G U116A | -5.13 |
| A46C G71U U87A C123U U132A | 0.774 |
| C73U U96A A108G C114A | -5.25 |
| C8U C13A G71U C79U | -1.19 |
| C22G G47A G120U G127U | -3.88 |
| C114A A119U | -3.28 |
| G19A C49G G60U C85U A111C | -2.03 |
| C62A G113U C114G | -4.19 |
| C82U G113C | -2.19 |
| C12A C20A G113U C115U U131A | -3.38 |
| C12U C73A C97G C104U | -2.89 |
| A24C C56U C114G | -5.71 |
| C40U A43G G61A G71U C124A | -4.58 |
| C80U G117C | -3.58 |
| G45U C56G C73A U116C | -4.92 |
| C15A A43U C49U A91U | -3.45 |
| A43C G113A | -2.91 |
| C70U C79U C124U | 1 |
| C4A G45A C72A C123A | -0.972 |
| A43C G69U G110A | -1.54 |
| C22U A27C U87G | -5.65 |
| C8U C102A | -1.17 |
| C31U C86U | -4.08 |
| G47U C89U G122A | -4.51 |

| Variant | polymerase ribozyme fitness (log ratio) |
| --- | --- |
| C79A C89A A118G | -3.86 |
| A108U C124A | -4.18 |
| A27U U78C U81A C94U | -4.92 |
| C20G G44A G120C | -4.1 |
| C12G G36C G58A | -1.29 |
| C12A C89U C101A A111U | -5.17 |
| C72U A95G C98U G113A A118G | -4.04 |
| A18G G45U C102U U109C U116G | -5.64 |
| C72U A84G C114A C115A | -6.51 |
| C64G C79G G120A G135C | -5.74 |
| A26U G44C G48C C101A A111G U112A C124A | -8.24 |
| A6C U7A A27G U78C G113A | -1.35 |
| C8U C20U U38G C62G G113U | -3.27 |
| U9G G35U A111U | -6.59 |
| A50U G120C | 0.234 |
| G10A G61C U87A C123A | -0.382 |
| G61U A108C | -3.81 |
| A41C A43C C72G C88A G93U C99A C102A C124A | -7.15 |
| G61A G93U | -0.737 |
| G44C A83U | -0.396 |
| G36A U55G G120C | 0.249 |
| G52U C70U U78A C101G G128A | -3.89 |
| C31G C124G | -6.98 |
| C3U A37U G61A G117A | -1.3 |

| Variant | polymerase ribozyme fitness (log ratio) |
| --- | --- |
| C8G G39U C123U | 1.42 |
| C11G C20G C73U U106A G107A | -5.37 |
| C8A G63U G77C G117C | -4.17 |
| G19U A26U C64U U78C C114A | -1.82 |
| G36U C53U G61A A118G | -1.48 |
| A2G C12U G47A G63U G113U | -4.51 |
| G25U | -5.58 |
| G58U C62A U92A | -5.81 |
| G45A C53A U109G G110U A121U | -3.48 |
| C12A C53U C73A | -0.585 |
| G61A G113C | -1.78 |
| C53U C73G G113C U132C | -3.47 |
| A26G G63A C124G | -0.0451 |
| C4G C13A C89A U130C | -3.33 |
| A18G C64U G113A | -1.65 |
| G36U U106G G120A | -1.89 |
| U21G U54C C56A G57C | -1.15 |
| G117C G127C | -5.04 |
| C34U A50U C73U C115A A119G | -4.5 |
| C56A C124G | 1.08 |
| C15A C70U C114U | -5.04 |
| G113A C123G C124A | -3.66 |
| U78C | -0.247 |
